Columns and labels:
[1] = molecular target: T1, human LILRB4 expressed on cells (human, UniProt Q8NHJ6 22-448); assay: FACS, CHO-K1 cells stably expressing human LILRB4; H7K3 in formulation buffer after 4 weeks at 40°C
T1 construct: whole, on cells; also called ILT3; CD85k
Procedure: (§1) EC50 FACS: Stable CHO-K1 cells expressing either human LILRB4 or flag-tagged cynomolgus monkey LILRB4 were used to determine binding capacity of stability samples of H7K3 antibody. CHO-K1 cells (1×10⁵) were stained with serially titrated stability samples followed by secondary staining with fluorescent-conjugated anti-human IgG (Biolegend). Geometric mean fluorescence (MFI) was measured and EC₅₀ were calculated by Prism.
(§2) The inventors then assessed the stability of the antibody H7K3 at 40° C. in PBS or a formulation buffer, the results of which are summarized in the Tables 2 and 3.

[2] = molecular target: T1, human LILRB4 expressed on cells; assay: FACS, CHO-K1 cells stably expressing human LILRB4; H7K3 reference row of the PBS stability table
Procedure: as §1, §2

[3] = molecular target: T1, human LILRB4 expressed on cells; assay: FACS, CHO-K1 cells stably expressing human LILRB4; H7K3 in formulation buffer after 2 weeks at 40°C
Procedure: as §1, §2

[4] = molecular target: T1, human LILRB4 expressed on cells; assay: FACS, CHO-stable cells expressing human LILRB4
[5] = molecular target: T1, human LILRB4 expressed on cells; assay: FACS, CHO-K1 cells stably expressing human LILRB4; H7K3 in PBS, T0
Procedure: as §1, §2

[6] = molecular target: T2, flag-tagged cynomolgus monkey LILRB4 expressed on CHO-K1 cells (cynomolgus monkey); assay: FACS, CHO-K1 cells stably expressing flag-tagged cyno LILRB4; H7K3 in PBS after 2 weeks at 40°C
T2 construct: whole, on cells; also called cyno LILRB4
Procedure: as §1, §2

[7] = molecular target: T1, human LILRB4 expressed on cells; assay: FACS, CHO-K1 cells stably expressing human LILRB4; H7K3 in PBS after 4 weeks at 40°C
Procedure: as §1, §2

[8] = molecular target: T2, flag-tagged cynomolgus monkey LILRB4 …; assay: FACS, CHO-K1 cells stably expressing flag-tagged cyno LILRB4; H7K3 reference row of the PBS stability table
Procedure: as §1

[9] = molecular target: T2, flag-tagged cynomolgus monkey LILRB4 …; assay: FACS, CHO-K1 cells stably expressing flag-tagged cyno LILRB4; H7K3 in PBS after 4 weeks at 40°C
Procedure: as §1, §2

[10] = molecular target: T2, flag-tagged cynomolgus monkey LILRB4 …; assay: FACS, CHO-K1 cells stably expressing flag-tagged cyno LILRB4; H7K3 in formulation buffer after 2 weeks at 40°C
Procedure: as §1, §2

[11] = molecular target: T1, human LILRB4 expressed on cells; assay: FACS, CHO-K1 cells stably expressing human LILRB4; H7K3 in formulation buffer, T0
Procedure: as §1

[12] = molecular target: T2, flag-tagged cynomolgus monkey LILRB4 …; assay: FACS, CHO-K1 cells stably expressing flag-tagged cyno LILRB4; H7K3 in formulation buffer after 4 weeks at 40°C
Procedure: as §1, §2

[13] = molecular target: T2, flag-tagged cynomolgus monkey LILRB4 …; assay: FACS, CHO-K1 cells stably expressing flag-tagged cyno LILRB4; H7K3 reference row of the formulation buffer stability table
Procedure: as §1

[14] = molecular target: T2, flag-tagged cynomolgus monkey LILRB4 …; assay: FACS, CHO-K1 cells stably expressing flag-tagged cyno LILRB4; H7K3 in PBS, T0
Procedure: as §1, §2

[15] = molecular target: T1, human LILRB4 expressed on cells; assay: FACS, CHO-K1 cells stably expressing human LILRB4; H7K3 reference row of the formulation buffer stability table; H7K3 reference row of Table 3 (formulation buffer), not a T0 or 40° C. sample
Procedure: as §1

[16] = molecular target: T2, flag-tagged cynomolgus monkey LILRB4 …; assay: FACS, CHO-stable cells expressing cyno LILRB4
[17] = molecular target: T2, flag-tagged cynomolgus monkey LILRB4 …; assay: FACS, CHO-K1 cells stably expressing flag-tagged cyno LILRB4; H7K3 in formulation buffer, T0
Procedure: as §1, §2

[18] = molecular target: T1, human LILRB4 expressed on cells; assay: FACS, CHO-K1 cells stably expressing human LILRB4; H7K3 in PBS after 2 weeks at 40°C
Procedure: as §1, §2

[19] = molecular target: T1, human LILRB4 expressed on cells; assay: cell-based or functional assay
[20] = molecular target: T1, human LILRB4 expressed on cells; assay: FACS (Geo MFI) on normal human monocytes; panel assigned to monocytes by the order in legend paragraph 86
[21] = molecular target: T1, human LILRB4 expressed on cells; assay: FACS (Geo MFI) on THP-1 cells; panel assigned to THP-1 by the order in legend paragraph 86

B1: H7K3 (antibody, V domains shown)
VH: EVQLVESGGGLVQPGGSLRLSCAASGFSLSSSYWISWVRQAPGKGLEWIGSIDSGSVGITYYATWVKGRFTISRDNSKNTLYLQMNSLRAEDTAVYYCARHGDNWALDLWGQGTLVTVSS
VL: DIQMTQSPSTLSASVGDRVTITCRASQSINSWLAWYQQKPGKAPKLLIYKASTLASGVPSRFSGSGSGTEFTLTISSLQPDDFATYYCQHGYIRGDLDNVFGGGTKVEIK
notes: Humanized from rabbit antibody B4-193; also called humanized anti-LILRB4 antibody; WT
Which EC50 [1] does the source give for B1 here?
Its EC50 is 2140 pM.

And the EC50 [2]?
The EC50 was 650 pM.

And the EC50 [3]?
Its EC50 is 1420 pM.

What about the EC50 [4] of the same binder?
The EC50 was 543 pM.

What about the EC50 [5] of the same binder?
The EC50 was 734 pM.

What about the EC50 [6] of the same binder?
Its EC50 is 1710 pM.

What about the EC50 [7] of the same binder?
Its EC50 is 696 pM.

And the EC50 [8]?
Its EC50 is 1180 pM.

And the EC50 [9]?
Its EC50 is 1720 pM.

And the EC50 [10]?
The EC50 was 3810 pM.

What about the EC50 [11] of the same binder?
The EC50 was 557 pM.

What about the EC50 [12] of the same binder?
The EC50 was 6050 pM.

What about the EC50 [13] of the same binder?
Its EC50 is 1180 pM.

What about the EC50 [14] of the same binder?
Its EC50 is 1200 pM.

And the EC50 [15]?
Its EC50 is 650 pM.

And the EC50 [16]?
Its EC50 is 1330 pM.

What about the EC50 [17] of the same binder?
Its EC50 is 884 pM.

And the EC50 [18]?
Its EC50 is 895 pM.

B2: H7K3m5 (antibody, V domains shown)
VH: EVQLVESGGGLVQPGGSLRLSCAASGFSLSSSYWISWVRQAPGKGLEWIGSIDSGSVGITYYATWVKGRFTISRDNSKNTLYLQMNSLRAEDTAVYYCARHGDNWALDLWGQGTLVTVSS
VL: DIQMTQSPSTLSASVGDRVTITCRASQSISSWLAWYQQKPGKAPKLLIYKASTLASGVPSRFSGSGSGTEFTLTISSLQPDDFATYYCQHGYIRGDLDNVFGGGTKVEIK
notes: Full-length IgG; human IgG1 is used as its isotype control; Only variable regions are tied to the name; Wild type (fucosylated) form unless said otherwise; also called variant 9; K3m5 (N/S)
Which results are given for B2?
EC50 [4]: 415 pM; T-cell cytotoxicity against THP-1-GFP cells, mean EC50 (n=3) [19]: 208 pM; EC50 (read off the curve) [20]: ~300 pM; EC50 (read off the curve) [21]: ~500 pM; EC50 [16]: 1120 pM

Source: patent US20230340114A1 (IMMUNE ONC THERAPEUTICS, published 2023)
